Molecular target: T1, S. pneumoniae IgA1 protease catalytic region (IgA1P residues 665–1963), wild type (Streptococcus pneumoniae, UniProt Q59947)
T1 construct: Streptococcus pneumoniae IgA1 protease (M26 metalloprotease), catalytic region, residues 665-1963 of UniProt Q59947 / NCBI WP_000417171 (D39 and R6 strains); Thrombin cleavage site between MBP and IgA1P; also called IgA1P 665–1963; not shown: MBP, N-terminal, cleaved
Assay: cryo-EM structure; wild type IgA1P (residues 665-1963) with the mAb #2 Fab fragment; same procedure as for the IgA1 complex but in the absence of EDTA; 20 mM HEPES, pH 7.4, 150 mM NaCl
Conditions: both partners purified

T1 sequence (Q59947 665-1963): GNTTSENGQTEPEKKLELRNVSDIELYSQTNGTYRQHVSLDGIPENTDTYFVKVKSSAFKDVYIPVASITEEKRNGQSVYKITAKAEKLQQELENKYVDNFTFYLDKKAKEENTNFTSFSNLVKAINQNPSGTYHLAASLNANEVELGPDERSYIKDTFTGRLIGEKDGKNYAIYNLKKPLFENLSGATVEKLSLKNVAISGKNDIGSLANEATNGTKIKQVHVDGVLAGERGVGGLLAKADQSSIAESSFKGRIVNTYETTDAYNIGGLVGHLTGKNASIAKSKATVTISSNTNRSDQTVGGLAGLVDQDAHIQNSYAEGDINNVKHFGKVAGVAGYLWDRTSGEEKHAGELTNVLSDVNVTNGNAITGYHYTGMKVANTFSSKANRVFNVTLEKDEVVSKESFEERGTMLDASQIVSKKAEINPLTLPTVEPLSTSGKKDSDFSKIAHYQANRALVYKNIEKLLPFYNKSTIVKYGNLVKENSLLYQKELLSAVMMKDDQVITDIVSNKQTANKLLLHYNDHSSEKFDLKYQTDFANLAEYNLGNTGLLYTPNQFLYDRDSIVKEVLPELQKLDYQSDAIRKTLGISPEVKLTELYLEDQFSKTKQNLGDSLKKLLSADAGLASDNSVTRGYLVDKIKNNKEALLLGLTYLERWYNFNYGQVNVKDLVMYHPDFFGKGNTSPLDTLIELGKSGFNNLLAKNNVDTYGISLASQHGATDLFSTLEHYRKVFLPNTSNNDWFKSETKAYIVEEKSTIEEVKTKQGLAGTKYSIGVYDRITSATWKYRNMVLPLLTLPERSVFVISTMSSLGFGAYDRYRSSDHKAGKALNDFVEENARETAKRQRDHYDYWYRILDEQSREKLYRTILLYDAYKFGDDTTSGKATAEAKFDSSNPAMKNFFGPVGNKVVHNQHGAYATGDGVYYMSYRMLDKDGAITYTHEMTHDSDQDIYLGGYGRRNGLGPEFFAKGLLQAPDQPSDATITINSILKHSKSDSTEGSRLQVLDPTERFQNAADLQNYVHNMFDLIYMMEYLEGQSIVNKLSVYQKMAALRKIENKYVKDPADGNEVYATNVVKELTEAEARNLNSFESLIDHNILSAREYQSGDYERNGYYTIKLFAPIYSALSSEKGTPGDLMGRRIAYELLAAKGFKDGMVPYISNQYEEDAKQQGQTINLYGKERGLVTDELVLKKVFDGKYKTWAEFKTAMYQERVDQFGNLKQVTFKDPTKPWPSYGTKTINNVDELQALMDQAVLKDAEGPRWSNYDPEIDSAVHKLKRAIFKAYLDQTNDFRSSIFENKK

B1: mAb #2 Fab fragment (neutralizing murine monoclonal antibody against IgA1P) (Fab, V domains shown)
VH: EVQLQQSGPELEKPGASMKISCKASGYSFTGYNMNWVKQSNGKSLEWIGSIDPYTGGSNYNQKFMGKATLTVDKSSSTAYMQLKSLTSEDSAVYYCATVVGRVYAMDYWGQGTSVTVSS
VL: EEVLTQSPAIMSASPGEKVTMTCSASSSVSYIHWYQQKSNTSPKLWIYATSKLASGVPGRFSGSGSGNSYSLTISSMEAEDVATYYCFQGSGYPFTFGSGTKLEIK
notes: PDB 3RHW named as the most similar heavy chain; PDB 4HXA named as the most similar light chain; Raised against purified full-length protease; also called neutralizing mAb Fab fragment; source: hybridoma (Balb C mouse spleen cells fused with SP2/0 myeloma cells), IgG purified on Protein G columns; Fab excised with immobilized Ficin
- binding result: binds
